The values that follow come from the supplement of paper PMC7125110.

The chains are these.
B1: glmS ribozyme (parent)
chain: AUAAAAGCGCCAGAACUACAGAAAUGUAGUUGACGAGGAGGAGGUUUAUCGAAUUUUCGGCGGAUGCCUCCAAA

± gives the standard error. Fewer inactive variants are shown than the library holds.

Holding throughout (settings): with glucosamine-6-phosphate
Variants of B1 are the subject of series [1]. Kind of series: self-cleavage kobs at 640 uM GlcN6P; higher = faster cleavage; RNA array. The method in brief:
(§1)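 Tiles bearing barcoded ribozyme variants, transcribed in situ by E. coli RNA polymerase on sequenced MiSeq chips, were imaged over ~14 h at 37 °C using a hybridised Cy3 probe. Glucosamine-6-phosphate was supplied at 40 μM to 10 mM in HEPES/KCl/Mg(OAc)2 buffer. kobs came from one- or two-exponential decay fits to normalised per-tile medians, and weighted Michaelis–Menten fits then provided kcat and KM.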

Variants of B1 are the subject of series [2]. Kind of series: self-cleavage kobs at 2500 uM GlcN6P; higher = faster cleavage; RNA array. The method in brief:
as §1

In series [3] the parent is B1. As to the kind of experiment: self-cleavage kobs at 10000 uM GlcN6P; higher = faster cleavage; RNA array. The method in brief: as §1

Consider A14C C16U G44U U69G, for which the “self-cleavage kobs at 640 uM GlcN6P” value in series [1] is less than 1e-05 s⁻¹.
The same measure, in the same setting: in the case of G35C G38A U69G it was 0.00083 ± 0.00024 s⁻¹.
On the same count and under the same terms, in the case of G7U U30G G63U it was less than 1e-05 s⁻¹.
On to A14C G41A C70U, for which, in series [1], the “self-cleavage kobs at 640 uM GlcN6P” value came to 0.00173 ± 0.00026 s⁻¹. The “self-cleavage kobs at 2500 uM GlcN6P” value in series [2] worked out at 0.00489 ± 0.0012 s⁻¹. The “self-cleavage kobs at 10000 uM GlcN6P” value in series [3] was found to be 0.0111 ± 0.0021 s⁻¹.
G7A U30A G60C: in series [2], the “self-cleavage kobs at 2500 uM GlcN6P” value is less than 1e-05 s⁻¹. Besides, the “self-cleavage kobs at 10000 uM GlcN6P” value in series [3] was less than 1e-05 s⁻¹.
A24C U47G C67A: in series [1], the “self-cleavage kobs at 640 uM GlcN6P” value came out at 0.000315 ± 7.3e-05 s⁻¹. Further, the “self-cleavage kobs at 2500 uM GlcN6P” value in series [2] came out at 0.000647 ± 0.00024 s⁻¹.
G9A A48U C50A: the “self-cleavage kobs at 640 uM GlcN6P” value in series [1] is less than 1e-05 s⁻¹.
Turning to A12G A48U G63U, in series [1], the “self-cleavage kobs at 640 uM GlcN6P” value is less than 1e-05 s⁻¹.
For C16G G32U C61U, the “self-cleavage kobs at 640 uM GlcN6P” value in series [1] was less than 1e-05 s⁻¹. In addition, the “self-cleavage kobs at 2500 uM GlcN6P” value in series [2] is less than 1e-05 s⁻¹.
A36G G43A G59U: the “self-cleavage kobs at 640 uM GlcN6P” value in series [1] is less than 1e-05 s⁻¹. The “self-cleavage kobs at 2500 uM GlcN6P” value in series [2] was less than 1e-05 s⁻¹.
As to A52G U55A, the “self-cleavage kobs at 2500 uM GlcN6P” value in series [2] was found to be 0.000757 ± 0.00015 s⁻¹. Further, the “self-cleavage kobs at 10000 uM GlcN6P” value in series [3] was 0.00185 ± 0.00032 s⁻¹.
Regarding G38A A48C, in series [1], the “self-cleavage kobs at 640 uM GlcN6P” value is less than 1e-05 s⁻¹. Besides, the “self-cleavage kobs at 2500 uM GlcN6P” value in series [2] is less than 1e-05 s⁻¹. The “self-cleavage kobs at 10000 uM GlcN6P” value in series [3] is less than 1e-05 s⁻¹.
Turning to G32U A33G, in series [1], the “self-cleavage kobs at 640 uM GlcN6P” value is less than 1e-05 s⁻¹.
As to A6U A14U A33G C61U, the “self-cleavage kobs at 2500 uM GlcN6P” value in series [2] was less than 1e-05 s⁻¹.
Turning to A52C A53U U55A U65A, the “self-cleavage kobs at 640 uM GlcN6P” value in series [1] was less than 1e-05 s⁻¹. Further, the “self-cleavage kobs at 2500 uM GlcN6P” value in series [2] is less than 1e-05 s⁻¹.
As for U54A G59U C68U C70G, in series [1], the “self-cleavage kobs at 640 uM GlcN6P” value was less than 1e-05 s⁻¹.
Consider C8U A12U A48U G62C U65A, for which the “self-cleavage kobs at 2500 uM GlcN6P” value in series [2] is less than 1e-05 s⁻¹.
For the variant C34U A48U A64U, the “self-cleavage kobs at 640 uM GlcN6P” value in series [1] is less than 1e-05 s⁻¹. Also, the “self-cleavage kobs at 2500 uM GlcN6P” value in series [2] was less than 1e-05 s⁻¹.
On to G41U U47G A53U, for which the “self-cleavage kobs at 640 uM GlcN6P” value in series [1] turned out to be 9.96e-05 ± 2.8e-05 s⁻¹. Further, the “self-cleavage kobs at 2500 uM GlcN6P” value in series [2] was found to be 0.000276 ± 6.9e-05 s⁻¹.
With A6C A42C C50A U54G G59C C61U, the “self-cleavage kobs at 640 uM GlcN6P” value in series [1] is less than 1e-05 s⁻¹.
The same measure, in the same setting: in the case of G7C C10A C71A it was less than 1e-05 s⁻¹.
For the variant C8A C11U G60C C67A, the “self-cleavage kobs at 640 uM GlcN6P” value in series [1] is less than 1e-05 s⁻¹. Further, the “self-cleavage kobs at 2500 uM GlcN6P” value in series [2] was less than 1e-05 s⁻¹. The “self-cleavage kobs at 10000 uM GlcN6P” value in series [3] is less than 1e-05 s⁻¹.
With U31A U46G A48G, the “self-cleavage kobs at 640 uM GlcN6P” value in series [1] was less than 1e-05 s⁻¹.
Turning to A15G G40U C50G G60C, the “self-cleavage kobs at 640 uM GlcN6P” value in series [1] is less than 1e-05 s⁻¹.
The same measure, in the same setting: in the case of C8G U31G C50G it was 7.77e-05 ± 3.6e-05 s⁻¹.
In the case of A12U A33G A48C, in series [1], the “self-cleavage kobs at 640 uM GlcN6P” value is less than 1e-05 s⁻¹. In addition, the “self-cleavage kobs at 2500 uM GlcN6P” value in series [2] is less than 1e-05 s⁻¹.
Regarding G7C U69A C70U, the “self-cleavage kobs at 640 uM GlcN6P” value in series [1] is less than 1e-05 s⁻¹.
The same measure, in the same setting: in the case of U46A U65A it was 0.000776 ± 0.0002 s⁻¹.
As for A39C C58G G63U U65A C71G, in series [1], the “self-cleavage kobs at 640 uM GlcN6P” value is less than 1e-05 s⁻¹. Besides, the “self-cleavage kobs at 2500 uM GlcN6P” value in series [2] is less than 1e-05 s⁻¹. The “self-cleavage kobs at 10000 uM GlcN6P” value in series [3] is less than 1e-05 s⁻¹.
G9U A12G C61A: the “self-cleavage kobs at 640 uM GlcN6P” value in series [1] came out at 3.47e-05 ± 1.5e-05 s⁻¹. Further, the “self-cleavage kobs at 2500 uM GlcN6P” value in series [2] came to 8.52e-05 ± 1.9e-05 s⁻¹.
The corresponding values for C16U G32C G35A C68A are less than 1e-05 s⁻¹ and less than 1e-05 s⁻¹.
U31G G62A: the “self-cleavage kobs at 640 uM GlcN6P” value in series [1] was less than 1e-05 s⁻¹.
Consider U45C U47A, for which, in series [1], the “self-cleavage kobs at 640 uM GlcN6P” value came out at 0.000335 ± 8.3e-05 s⁻¹. For the same variant, the “self-cleavage kobs at 2500 uM GlcN6P” value in series [2] was found to be 0.000441 ± 0.00018 s⁻¹.
